Assay [1] has as its target TFIIICΔtail complex (S. cerevisiae TFIIIC with τ95 truncated at residue 593) (S. cerevisiae) (UniProt P34111). Description: cryo-EM structure; τB–DNA dimer classes of dataset 1 (2 μM TFIIICΔtail with equimolar 85-bp tRNA^His DNA, 200 mM KCl); map with preferred orientation, no model deposited.
The target is the same in assay [2]. In words: mass photometry; TFIIICΔtail at 50 and 100 nM, with and without 85- and 120-bp tRNA^His DNA; 20 mM HEPES pH 8, 100 mM KCl, 2 mM MgCl2, 5 mM DTT.

As for “TFIIICΔtail complex (S. cerevisiae TFIIIC with τ95 truncated at residue 593), P34111 1-1160; P33339 1-1025; P32367 1-593; Q06339 1-672; Q12308 1-588; Q12415 1-435”, the stoichiometry N in assay [1] and in assay [2] was 2 throughout.

(Values after paper PMC11724288.)
